Three molecules from US10633455B2, “Method for treating and diagnosing disease using inhibitors of goodpasture antigen binding protein” (Fibrostatin S.L., priority 2011, dated 2020) can be followed below.

The target of one test is T1, GPBP (Homo sapiens, UniProt Q9Y5P4).
T1 sequence (Q9Y5P4 1-624): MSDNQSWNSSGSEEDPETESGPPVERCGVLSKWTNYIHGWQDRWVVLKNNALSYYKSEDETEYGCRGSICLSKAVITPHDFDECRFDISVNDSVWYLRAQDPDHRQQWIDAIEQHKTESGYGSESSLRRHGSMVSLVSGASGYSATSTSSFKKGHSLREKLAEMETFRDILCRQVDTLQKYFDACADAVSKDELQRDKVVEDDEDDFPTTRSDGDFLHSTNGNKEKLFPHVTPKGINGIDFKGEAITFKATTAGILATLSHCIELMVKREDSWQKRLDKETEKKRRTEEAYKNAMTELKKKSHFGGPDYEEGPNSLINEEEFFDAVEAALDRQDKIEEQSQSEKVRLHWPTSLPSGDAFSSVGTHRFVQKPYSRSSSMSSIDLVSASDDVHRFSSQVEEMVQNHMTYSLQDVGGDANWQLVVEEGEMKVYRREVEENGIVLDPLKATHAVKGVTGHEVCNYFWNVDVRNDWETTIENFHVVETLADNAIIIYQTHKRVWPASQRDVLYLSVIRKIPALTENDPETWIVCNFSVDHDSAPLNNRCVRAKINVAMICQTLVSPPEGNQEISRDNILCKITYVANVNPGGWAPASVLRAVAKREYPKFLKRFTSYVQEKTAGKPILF
Nature of the test: Inhibition of autophosphorylating activity of GPBP in vitro. The class given is biochemical. As to conditions: Pretswick Chemical Library selection (not shown).

A further test deals with doxorubicin-induced PF. The test is described as follows: Doxorubicin-induced pulmonary fibrosis in mice. The class given is in vivo, C57BL/6 male mice. On the procedure:
For induction of PF with doxorubicin (Example 3), eight to ten weeks-old C57BL/6 male mice were purchased from Harlan Ibérica (Barcelona, Spain). For intratracheal (i.t.) instillation of doxorubicin (Sigma), mice were anesthetized by intraperitoneal (i.p.) injection of ketamine (50 μg/g of body weight), atropine sulphate (0.2 μg/g) and diazepam (4 μg/g). The trachea was localized by cutaneous incision in the anterior face of the neck and immobilized with forceps. Then 75 μl of doxorubicin chlorhydrate (1 mg/ml) were injected i.t. with a 30 G needle. Skin was then sutured with 3/0 silk. Mice were fed ad libitum with a normal chow diet and bled from the retro-orbital plexus at different time points after doxorubicin i.t. instillation. […] Mice instilled i.t. with doxorubicin were daily injected i.p. with either with 0.027, 0.08, 0.25 or 1.225 mg/kg of Pinacidil or with 0.11, 0.34 or 0.95 mg/kg of Myricetin. Mice were sacrificed twelve days after doxorubicin administration for gene expression analysis and anatomopathological studies of the lungs.
In PF assays, mouse lungs were intrabronchially perfused with 4% phosphate buffered formalin, then incubated in this fixative during 24 hours and finally embedded in paraffin. Tissue sections of 5 μm were stained with HE or with Masson's trichrome following conventional methods. For immunohistochemistry, paraffin-embedded lungs were stained with anti-GPBP-pep1 antibodies (3), which was detected with anti-chicken-HPR and DAB substrate (Dako Diagnósticos, S.A., Barcelona Spain). Specimens were counterstained with hematoxylin.
In assays of experimental pulmonary fibrosis, the expression of GPBP and of collagens type I and type IV mRNAs in the lung was analyzed by real-time quantitative PCR (RT-qPCR). One μg of the isolated RNA was used for cDNA synthesis with a RT-PCR kit (Amersham Pharmacia Biotech, Piscataway, N.J.), according to the manufacturer instructions. RT-qPCR was performed on a MX-3000P Stratagene instrument (Agilent Technologies, Inc., Santa Clara, Calif.) using specific primers SYBR Green PCR Master Mix (Applied Biosystems, Life Technologies Corporation). Primers used were: for α1(I) collagen gene, 5′ primer 5′-[…]-3′ (SEQ ID NO: 12) and 3′ primer 5′-[…]-3′ (SEQ ID NO: 13); for GPBP gene, 5′ primer 5′-[…]-3′ (SEQ ID NO: 14) and 3′ primer 5′-[…]-3′(SEQ ID NO: 15); for 18S gene, 5′ primer 5′-[…]-3′ (SEQ ID NO: 16) and 3′ primer 5′-[…]-3′ (SEQ ID NO: 17). Results (in triplicate) were normalized to the ribosomal 18S subunit expression and measured in parallel in each sample. Data were expressed as mean fold change relative to control samples.

In a further test the test system is A549 cells. The test is described as follows: mRNA expression profile / KEGG pathway analysis of A549 cells cultured with rcGPBP-1. The class given is cell-based, human. As to conditions: 200 ng/mL. The protocol:
Human A549 cells were cultured with or without 200 ng/mL of rcGPBP-1 for 3 hours. Then cells were lysed and total RNA was extracted with RNeasy™ Protect mini kit (Qiagen, Valencia, Calif.) according to manufacturer's recommendations. RNA was quantified by spectrometry with a NanoDrop™ ND1000 (NanoDrop Technologies, Wilminton, Del.) and quality confirmed by RNA 6000 Nano Bioanalyzer (Agilent Technologies, Palo Alto, Calif.) assay. Briefly, 150 ng of total RNA were used to produce Cyanine 3-CTP-labeled cRNA using the Low Input Quick™ Amp Labelling Kit One-Color (Agilent) according to the manufacturer's instructions. Following ‘One-Color Microarray-Based Gene Expression Analysis’ protocol Version 6.0 (Agilent), 1600 ng of labelled cRNA were hybridized with the Whole Human Genome Oligo Microarray Kit (Agilent) containing 41000+ unique human genes and transcripts. Arrays were scanned in an Agilent Microarray Scanner according to the manufacturer's instructions and data extracted using Agilent Feature Extraction Software 10.7.1 following the Agilent protocol GE1_107_Sep09, grid template 014850_D_F_20100430 and the QC Metric Set GE1_QCMT_Sep09. Analysis was performed in the Genomics Core Service of the Centro de Investigación Príncipe Felipe (Valencia, Spain) using an Agilent Microarray Scanner (Agilent Technologies, Palo Alto, Calif.).
Raw data files were background corrected using supplier's methodology and intensity signal standardized across arrays via quantile normalization algorithm. Differential gene expression assessment of all comparisons was carried out using limma moderated t-statistics. Conventional adjustment for multiple testing proposed by Benjamini Hochberg (5) was used to derive adjusted P-values. Also, for each of the comparisons performed in the study, gene set analysis was carried out using logistic regression models, and correcting for multiple testing as before (5). All analyses where carried out using Babelomics™ (6) web suite at the Bioinformatics Department of Centro de Investigación Príncipe Felipe. Array data have been deposited in GEO (accession number GSE32181).

[1] abbreviates: A549 + rcGPBP-1 vs A549, 3 hours, P. adjusted 0.1576.

`O=c1c(O)c(-c2cc(O)c(O)c(O)c2)oc2cc(O)cc(O)c12` [myricetin]: the “autophosphorylating activity of GPBP” value on GPBP is “inhibit the autophosphorylating activity of GPBP in vitro”. In addition, in the test on doxorubicin-induced PF (all doses tested (0.11, 0.34 or 0.95 mg/kg daily i.p.), day 12 (FIG. 11B)), the “doxorubicin-induced fibrosis (α1(I) collagen mRNA)” value is “efficient reduction”.
Take `CC(N/C(=N\C#N)Nc1ccncc1)C(C)(C)C` (centres unmarked) [pinacidil]: the “autophosphorylating activity of GPBP” value on GPBP is given as “inhibit the autophosphorylating activity of GPBP in vitro”. Moreover, the “expression of pulmonary α1(I) collagen mRNA” value in the test on doxorubicin-induced PF (daily dose of 0.08 mg/kg i.p., day 12, RT-qPCR (FIG. 11A)) is given as “significant reduced expression”. Besides, the “severity of doxorubicin-induced pulmonary fibrosis” value in the test on doxorubicin-induced PF (daily dose of 0.08 mg/kg i.p., days 0-12, histology (FIG. 10)) is reported as “sharply reduced”. Also, in the test with doxorubicin-induced PF (higher doses, 0.25 or 1.225 mg/kg/day (FIG. 11A)), the “therapeutic effect (α1(I) collagen mRNA)” value was “lost”.

B1: rcGPBP-1: Recombinant cGPBP-1 purified from culture media of a HEK 293 cell clone that constitutively secretes FLAG-GPBP-1 (protein)
chain: T1 sequence (Q9Y5P4 1-624)
In the case of B1, the “Log Odds Ratio, KEGG pathway hsa05322 SLE” value in the test with A549 cells (A549 + rcGPBP-1 vs A549, 3 hours, P. adjusted 0.0003) was found to be 0.1444. Besides, in the test on A549 cells (setting [1]), the “Log Odds Ratio, KEGG pathway hsa00380 Tryptophan metabolism” value is listed as −0.1522; the “Log Odds Ratio, KEGG pathway hsa04120 Ubiquitin mediated proteolysis” value was −0.1130; the “Log Odds Ratio, KEGG pathway hsa04210 Apoptosis” value was −0.1307; the “Log Odds Ratio, KEGG pathway hsa05200 Pathways in cancer” value is reported as −0.0843. Moreover, in the test on A549 cells (setting [1]), the “Log Odds Ratio, KEGG pathway hsa05211 Renal cell carcinoma” value is −0.1355 and the “Log Odds Ratio, KEGG pathway hsa05222 Small cell lung cancer” value was −0.1253. Also, in the test with A549 cells (A549 + rcGPBP-1 vs A549, 3 hours, P. adjusted 0.1579), the “Log Odds Ratio, KEGG pathway hsa04510 Focal adhesion” value is −0.0969. Further, the “Log Odds Ratio, KEGG pathway hsa04914 Progesterone-mediated oocyte maturation” value in the test on A549 cells (A549 + rcGPBP-1 vs A549, 3 hours, P. adjusted 0.1771) was −0.1223. The “Log Odds Ratio, KEGG pathway hsa05218 Melanoma” value in the test with A549 cells (A549 + rcGPBP-1 vs A549, 3 hours, P. adjusted 0.3348) was −0.1196. Besides, the “changes in the expression of individual genes” value in the test with A549 cells (A549 cells, microarray) is reported as “No statistically significant changes”.
